Measured values published in patent US20050176062A1, “Method of identifying ligands for nuclear receptors” (priority 2002, published 2005).
Where no end group is shown, it is not given here. The star is where a group is joined. Biotin = O=C1N[C@H]2[C@H](CS[C@H]2CCCCC(=O)*)N1

T1: (His)6RORa-LBD269-556 (Homo sapiens, UniProt P35398)
T1 construct: Extraction is performed by mixing 2 ml of a solution containing (His)6RORa-LBD269-556 at 4.6 mg/ml; made in house; host or cells: Sf9 insect cells (baculovirus)
T1 sequence (P35398 269-556 isoform P35398-1): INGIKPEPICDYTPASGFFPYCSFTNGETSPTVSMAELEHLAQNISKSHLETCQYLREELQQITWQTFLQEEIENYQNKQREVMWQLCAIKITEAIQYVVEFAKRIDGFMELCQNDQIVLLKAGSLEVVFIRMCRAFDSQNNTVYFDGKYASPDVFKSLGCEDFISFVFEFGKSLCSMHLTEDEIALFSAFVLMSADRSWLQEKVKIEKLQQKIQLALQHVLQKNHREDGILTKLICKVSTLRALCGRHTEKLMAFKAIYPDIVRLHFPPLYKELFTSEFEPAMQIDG

T2: (His)6RORa-LBD304-556 (Homo sapiens, UniProt P35398)
T2 construct: Crystals are obtained for the construct (His)6RORa-LBD304-556 and diffraction data are collected to 1.88 Å; 6xHis (N); made in house; host or cells: Sf9 insect cells (baculovirus)
T2 sequence (P35398 304-556 isoform P35398-1): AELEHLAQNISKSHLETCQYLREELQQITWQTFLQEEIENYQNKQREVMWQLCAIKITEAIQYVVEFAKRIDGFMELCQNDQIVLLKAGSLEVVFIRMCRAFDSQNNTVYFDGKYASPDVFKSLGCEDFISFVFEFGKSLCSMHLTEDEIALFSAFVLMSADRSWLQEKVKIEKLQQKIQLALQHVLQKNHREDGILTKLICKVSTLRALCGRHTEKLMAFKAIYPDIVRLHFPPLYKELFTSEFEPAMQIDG

T3: ERα-LBD / GRIP1 peptide interaction (Homo sapiens, UniProt P03372)
T3 construct: Control proteins (His)6ERα-LBD301-553 and (His)6cytohesin-1 are cloned and expressed in E. coli; (His)6; made in house; host or cells: E. coli
T3 sequence (P03372 301-553): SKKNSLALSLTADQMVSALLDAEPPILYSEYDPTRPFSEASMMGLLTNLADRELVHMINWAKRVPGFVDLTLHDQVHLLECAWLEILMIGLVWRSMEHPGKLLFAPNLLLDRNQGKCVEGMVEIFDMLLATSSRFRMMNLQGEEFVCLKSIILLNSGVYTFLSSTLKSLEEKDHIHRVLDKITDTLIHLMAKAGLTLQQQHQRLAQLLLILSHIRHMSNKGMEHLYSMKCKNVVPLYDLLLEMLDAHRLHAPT

B1: biotinylated 24-mer GRIP1 peptide (Biotinyl-GSTHGTSLKEKHKILHRLLQDSSS-NH2) (peptide)
peptide: Biotin-GSTHGTSLKEKHKILHRLLQDSSS-NH2
SMILES: CC[C@H](C)[C@H](NC(=O)[C@H](CCCCN)NC(=O)[C@H](Cc1c[nH]cn1)NC(=O)[C@H](CCCCN)NC(=O)[C@H](CCC(=O)O)NC(=O)[C@H](CCCCN)NC(=O)[C@H](CC(C)C)NC(=O)[C@H](CO)NC(=O)[C@@H](NC(=O)CNC(=O)[C@H](Cc1c[nH]cn1)NC(=O)[C@@H](NC(=O)[C@H](CO)NC(=O)CNC(=O)CCCC[C@@H]1SC[C@@H]2NC(=O)N[C@@H]21)[C@@H](C)O)[C@@H](C)O)C(=O)N[C@@H](CC(C)C)C(=O)N[C@@H](Cc1c[nH]cn1)C(=O)N[C@@H](CCCNC(=N)N)C(=O)N[C@@H](CC(C)C)C(=O)N[C@@H](CC(C)C)C(=O)N[C@@H](CCC(N)=O)C(=O)N[C@@H](CC(=O)O)C(=O)N[C@@H](CO)C(=O)N[C@@H](CO)C(=O)N[C@@H](CO)C(N)=O
notes: Synthetic (Mimotopes #814201), immobilized on a streptavidin coated SA-chip; also called biotinylated GRIP1 peptide; immobilized GRIP1 peptide
B2: (His)6ERα-LBD301-553 (receptor, UniProt P03372 301-553, looked up)
chain: T3 sequence (P03372 301-553)
notes: Control protein, expressed in E. coli, purified by Ni-NTA and size exclusion; Tested alone, after preincubation with E2 (10 µM) and with the antagonist BA31257; also called ER-LBD; not shown: (His)6 tag
B3: (His)6ERa-LBD301-553: control protein, His-tagged ERα ligand binding domain 301-553, cloned and expressed in E. coli (protein)
chain: T3 sequence (P03372 301-553)
modifications: left off: small tags and cut ends

What was measured:
[1] = target: T1, (His)6RORa-LBD269-556; assay: GC-MS of the hexane extract of (His)6RORa-LBD269-556 (identification of bound ligands); conditions: GC/MS after BSTFA derivatization, protein from Sf9 cells
Experimental: Extraction is performed by mixing 2 ml of a solution containing (His)6RORa-LBD269-556 at 4.6 mg/ml and 2 ml of hexane and shaking for 1 minute. The aqueous phase is extracted a second time using the same procedure. The organic phases are pooled and evaporated to dryness under nitrogen. The extract is dissolved in […] pyridine. An aliquot of 10 ml is derivatized with 5 ml N,O-bistrimethylsilyl-trifluoroacetamide (BSTFA) at 60° C. for 30 min. Reference compounds cholesterol and 7-dehydrocholesterol (Sigma) are derivatized following the same procedure. For structure elucidation, the underivatized and the derivatized sample and reference compounds are analyzed by GC/MS, respectively.
The GC/MS system consists of a Carlo Erba Mega 5160 gas chromatograph, which is coupled to a Finnigan TSQ-700 mass spectrometer equipped with an electron impact ion source (EI). The ion source is heated to a temperature of 150° C., filament current is 20 mA, electron multiplier voltage 1000V, and the conversion dynode is set to 15 kV. The scan range is m/z 100-700 with a scan time of 2 seconds. The gas chromatographic separation is performed on a 10 m×0.2 mm Duran glass column coated with a […] film of SDPE-08 using hydrogen as carrier gas at a constant flow rate of 2.5 ml/min. The temperature program is set to 100-330° C. at a rate of 6° C./min. The GC/MS interface temperature is set to 350° C. […]

[2] = target: biotinylated 24-mer GRIP1 peptide (Biotinyl-…-NH2) (mouse); assay: Biacore SPR, biotinylated peptide on streptavidin SA-chip, RORα-LBD injected
[3] = target: T2, (His)6RORa-LBD304-556; assay: X-ray crystallography of (His)6RORa-LBD304-556 (ligand in the ligand binding pocket); conditions: 1.88 Å diffraction data
From the text: Crystals are obtained for the construct (His)6RORa-LBD304-556 and diffraction data are collected to 1.88 Å at the synchrotron (SNBL, ESRF Grenoble). The structure is solved ab initio with a Hg-derivative.
The excellent fit to the electron density allows the identification of the ligand to be cholesterol. […] Based on the X-ray structure, proposals are made for cholesterol derivatives, and in particular cholesterol sulfate is proposed as a ligand with a higher affinity to RORa than cholesterol, because of the electrostatic interactions with two Arg-side chains at the hydrophilic end of the LBP. Confirmation of the presence of cholesterol and comparative binding studies between cholesterol and cholesterol sulfate are further achieved by mass spectrometry on construct (His)6RORa-LBD269-556.

[4] = target: B2; assay: Biacore SPR, biotinylated peptide on SA-chip, ER-LBD preincubated with E2 (10 µM)
[5] = target: B2; assay: Biacore SPR, biotinylated peptide on SA-chip, ER-LBD without added ligand (basal)
[6] = target: (His)6RORα-LBD269-556 (human) (UniProt P35398); assay: Biacore SPR competition: free 20-mer peptide inhibits binding of RORα-LBD to the immobilized 24-mer GRIP1 peptide
[7] = target: B1; assay: Biacore SPR, ER-LBD preincubated with E2 (10 µM) against ER-LBD without ligand
[8] = target: T3, ERα-LBD / GRIP1 peptide interaction; assay: Biacore binding assay of (His)6ERa-LBD301-553 to immobilized GRIP1 peptide (positive control); conditions: basal level, no ligand; read-out: apparent Kd of ERa-LBD binding to immobilized GRIP1 peptide

CC(C)CCC[C@@H](C)[C@H]1CC[C@H]2C3=CC=C4C[C@@H](O)CC[C@]4(C)[C@H]3CC[C@]12C [7-Dehydrocholesterol]
SIC-% of compound in the extract of (His)6RORa-LBD269-556 [1]: 18.3%

(His)6RORα-LBD269-556 (from UniProt P35398 269-523) (receptor)
Kd [2]: 241 nM

CC(C)CCC[C@@H](C)[C@H]1CC[C@H]2[C@@H]3CC=C4C[C@@H](O)CC[C@]4(C)[C@H]3CC[C@]12C [Cholesterol]
SIC-% of compound in the extract of (His)6RORa-LBD269-556 [1]: 77.4% | ligand found in the LBP by electron density [3]: unambiguous identification of the ligand as cholesterol

B1
Kd [4]: ~70 nM | Kd [5]: ~450 nM

GTSLKEKHKILHRLLQDSSS (not fully specified) [non-biotinylated 20-mer GRIP1 peptide …]
IC50 [6]: 3000 nM

B2
fold increase of binding affinity [7]: 6.5 fold

B3
Kd [8]: ~450 nM
